Measurements published in patent publication US20100196934A1.
Values joined by “and” are separate entries in the source; they are usually repeats but may differ in a detail not shown here. Equal values may be shown once. Read-outs that look alike come from different tables or passages of the source.

What was measured:
[1] = biological target: Sheep recombinant PrP (sheep); assay: direct ELISA, coated denatured rPrP 0.1 ng/assay
[2] = biological target: Mouse recombinant PrP (mouse); assay: direct ELISA, coated denatured rPrP 0.1 ng/assay
[3] = biological target: Human recombinant PrP (human); assay: direct ELISA, coated denatured rPrP 0.1 ng/assay
[4] = biological target: Bovine recombinant PrP (bovine); assay: direct ELISA, coated denatured rPrP 0.1 ng/assay
[5] = biological target: Deer recombinant PrP (deer); assay: direct ELISA, coated denatured rPrP 0.1 ng/assay
Mouse BH PrP^Sc (mouse) [6] = assay: direct ELISA, coated denatured mouse BH PrP^Sc 0.1 mg BH/assay
[7] = biological target: Sheep recombinant PrP (sheep); assay: direct ELISA, coated denatured rPrP 1 ng/assay
[8] = biological target: Mouse recombinant PrP (mouse); assay: direct ELISA, coated denatured rPrP 1 ng/assay
[9] = biological target: Human recombinant PrP (human); assay: direct ELISA, coated denatured rPrP 1 ng/assay
[10] = biological target: Bovine recombinant PrP (bovine); assay: direct ELISA, coated denatured rPrP 1 ng/assay
[11] = biological target: Deer recombinant PrP (deer); assay: direct ELISA, coated denatured rPrP 1 ng/assay
Mouse BH PrP^Sc (mouse) [12] = assay: direct ELISA, coated denatured mouse BH PrP^Sc 1 mg BH/assay
[13] = biological target: Human PrP^C (normal human plasma; normal human brain homogenate) (human); assay: sandwich ELISA, capture SAF-32; normal human BH, PK 25 ug/mL, un-denatured
[14] = biological target: Human PrP^Sc of vCJD brain homogenate (vCJD MM, White strain) (human); assay: sandwich ELISA, capture SAF-32; vCJD human BH, trypsin 25 ug/mL, un-denatured
[15] = biological target: Human PrP^Sc of vCJD brain homogenate (vCJD MM, White strain) (human); assay: sandwich ELISA, capture SAF-32; vCJD human BH, PK 25 ug/mL, 4M GdnHCl-denatured
[16] = biological target: Human PrP^Sc of vCJD brain homogenate (vCJD MM, White strain) (human); assay: sandwich ELISA, capture SAF-32; vCJD human BH, PK 25 ug/mL, un-denatured
[17] = biological target: Human PrP^C (normal human plasma; normal human brain homogenate) (human); assay: sandwich ELISA, capture SAF-32; normal human BH, trypsin 25 ug/mL, un-denatured
[18] = biological target: Human PrP^C (normal human plasma; normal human brain homogenate) (human)
[19] = biological target: Human PrP^Sc of vCJD brain homogenate (vCJD MM, White strain) (human)

Substance	RLU [1] [RLU]	RLU [2] [RLU]	RLU [3] [RLU]	RLU [4] [RLU]	RLU [5] [RLU]	RLU (Mouse BH PrP^Sc (mouse) [6]) [RLU]	RLU [7] [RLU]	RLU [8] [RLU]	RLU [9] [RLU]	RLU [10] [RLU]	RLU [11] [RLU]	RLU (Mouse BH PrP^Sc (mouse) [12]) [RLU]	RLU [13] [RLU]	RLU [14] [RLU]	RLU [15] [RLU]	RLU [16] [RLU]	RLU [17] [RLU]	RLU [18]	RLU [19] [RLU]
Mouse anti Prion (SAF-32) (antibody)	294	97.6	285	450	457	176	1440	73.3	1570	2400	2320	551							
Mouse anti Prion (SAF-83) (antibody)	98.1	181	65.2	45.7	122	274	115	2230	67	50.8	125	1730							
HuM D18 (antibody)	169	366	77.5	109	134	376	186	1770	94.7	132	121	2230							
monoclonal antibody 3F4													7.7	15.1	226	10	6.1	50.4 RLU and 18.1 RLU	1650
Mouse anti Prion (SAF-61) (antibody)	115	142	90.4	67.6	150	169	113	464	101	136	190	579							
mAb to prion BDI115 (antibody)	108	54.7	48	59.1	105	119	104	86.7	74.3	177	160	116							
Mouse anti Prion (SAF-53) (antibody)	100	70.8	85.2	76.6	144	165	154	612	93.5	145	263	667							
